{"source": "patent US20250381305A1", "about": "“METHOD FOR TREATING A PARKINSON'S DISEASE” (SINEUGENE THERAPEUTICS CO., LTD., priority 2022, published 2025)", "molecules": {"B1": {"name": "C242A: Flag-tagged TRIM72 mutant, cysteine at position 242 substituted by alanine; blocks oligomer formation (protein, UniProt Q1XH17 1-477, looked up, variant C242A)", "Tripartite motif-containing …": "MSAAPGLLRQELSCPLCLQLFDAPVTAECGHSFCRACLIRVAGEPAADGTVACPCCQAPTRPQALSTNLQLSRLVEGLAQVPQGHCEEHLDPLSIYCEQDRTLVCGVCASLGSHRGHRLLPAAEAQARLKTQLPQQKMQLQEACMRKEKTVAVLEHQLVEVEETVRQFRGAVGEQLGKMRMFLAALESSLDREAERVRGDAGVALRRELSSLNSYLEQLRQMEKVLEEVADKPQTEFLMKFALVTSRLQKILSESPPPARLDIQLPVISDDFKFQVWKKMFRALMPALEELTFDPSSAHPSLVVSSSGRRVECSDQKAPPAGEDTRQFDKAVAVVAQQLLSQGEHYWEVEVGDKPRWALGVMAADASRRGRLHAVPSQGLWLLGLRDGKILEAHVEAKEPRALRTPERPPARIGLYLSFADGVLAFYDASNPDVLTPIFSFHERLPGPVYPIFDVCWHDKGKNAQPLLLVGPEQEQA", "modifications": "Flag tag"}, "B2": {"name": "C14A: Flag-tagged TRIM72 mutant, cysteine at position 14 substituted by alanine; E3 ligase inactive (protein, UniProt Q1XH17 1-477, looked up, variant C14A)", "Tripartite motif-containing …": "B1 Tripartite motif-containing … with C14A, A242C", "modifications": "Flag tag"}, "B3": {"name": "coiled-coil single domain: TRIM72 truncation with the coiled-coil domain only, 135aa-232aa (probably SEQ ID NO: 5) (protein)", "chain": "QQKLQLQEACMRKEKSVAVLEHQLVEVEETVRQFRGAVGEQLGKMRVFLAALEGSLDREAERVRGEAGVALRRELGSLNSYLEQLRQMEKVLEEVADK", "modifications": "human TRIM72 coiled-coil domain (135-232 aa)"}, "B4": {"name": "TRIM40: other TRIM protein overexpressed in N2a cell line by scAAV9 infection, as comparison (protein, UniProt Q3UWA4 1-246, looked up)", "chain": "MGSLDKDNQDICPICLDPLKEAVSTDCRHLFCRMCLTQHMDKASVSGILSCPVCRKPCSEGVLGDNYICHTHQKRVRRFCEASGHLLCEECLQSPEHQSHTELSIENAISHYKERLNRRSRKLRKDLGNLQQLKAQEKKMLQALQVDCECHRLRTDLQNQDQTKEQLKALPWHWLDQEDLPEEVAKIFSFSEAVTQLSILVSGLERMAKDLDASTLKDASDLLDRSAPQKLEGLLSRVSPAGPKLS", "modifications": "full-length", "notes": "other TRIM protein overexpressed in N2a cell line by scAAV9 infection, as comparison"}, "B5": {"name": "PRYSPRY single domain: TRIM72 truncation with the PRYSPRY domain only, 278aa-470aa (probably SEQ ID NO: 6) (protein)", "chain": "RKMFRALMPALEELTFDPSSAHPSLVVSSSGRRVECSEQKAPPAGEDPRQFDKAVAVVAHQQLSEGEHYWEVDVGDKPRWALGVIAAEAPRRGRLHAVPSQGLWLLGLREGKILEAHVEAKEPRALRSPERRPTRIGLYLSFGDGVLSFYDASDADALVPLFAFHERLPRPVYPFFDVCWHDKGKNAQPLLLV", "modifications": "human TRIM72 PRYSPRY domain (278-470 aa)"}, "B6": {"name": "Coiled-PRYSPRY: TRIM72 truncation with coiled-coil and PRYSPRY domains, expressed by scAAV9 (probably SEQ ID NO: 11) (protein)", "chain": "QQKLQLQEACMRKEKSVAVLEHQLVEVEETVRQFRGAVGEQLGKMRVFLAALEGSLDREAERVRGEAGVALRRELGSLNSYLEQLRQMEKVLEEVADKPQTEFLMKYCLVTSRLQKILAESPPPARLDIQLPIISDDFKFQVWRKMFRALMPALEELTFDPSSAHPSLVVSSSGRRVECSEQKAPPAGEDPRQFDKAVAVVAHQQLSEGEHYWEVDVGDKPRWALGVIAAEAPRRGRLHAVPSQGLWLLGLREGKILEAHVEAKEPRALRSPERRPTRIGLYLSFGDGVLSFYDASDADALVPLFAFHERLPRPVYPFFDVCWHDKGKNAQPLLLV", "modifications": "expressed by scAAV9; TRIM72 coiled-coil domain plus PRYSPRY domain (135-470aa)"}, "B7": {"name": "TRIM72: full-length TRIM72 protein with Ring finger, B-box, coiled-coil and PRYSPRY domains, overexpressed by lentivirus or scAAV9 (protein, listed as Homo sapiens)", "chain": "MSAAPGLLHQELSCPLCLQLFDAPVTAECGHSFCRACLGRVAGEPAADGTVLCPCCQAPTRPQALSTNLQLARLVEGLAQVPQGHCEEHLDPLSIYCEQDRALVCGVCASLGSHRGHRLLPAAEAHARLKTQLPQQKLQLQEACMRKEKSVAVLEHQLVEVEETVRQFRGAVGEQLGKMRVFLAALEGSLDREAERVRGEAGVALRRELGSLNSYLEQLRQMEKVLEEVADKPQTEFLMKYCLVTSRLQKILAESPPPARLDIQLPIISDDFKFQVWRKMFRALMPALEELTFDPSSAHPSLVVSSSGRRVECSEQKAPPAGEDPRQFDKAVAVVAHQQLSEGEHYWEVDVGDKPRWALGVIAAEAPRRGRLHAVPSQGLWLLGLREGKILEAHVEAKEPRALRSPERRPTRIGLYLSFGDGVLSFYDASDADALVPLFAFHERLPRPVYPFFDVCWHDKGKNAQPLLLVGPEGAEA"}}, "note": "Positions count from the first letter of the chain named. Names and notes keep the numbering of the source. “Also recorded” adds a separate entry of the source.", "data": [{"tested_on": "293 FT", "assay": "Cell viability after stress challenge, TRIM72 point mutants", "assay_type": "cell-based", "conditions": "Flag-tagged point mutants vs wildtype; oxidative stress", "experimental": "For TRIM72 stable expression cell line construction, DNA fragments of the series of Flag-tagged TRIM72 mutants or domain deletion or single domain were amplified from the corresponding TRIM72 expression vector by PCR and inserted into pLJM1-EGFP lentiviral vector between BsrGI and EcoRI sites to generate the series of Flag-tagged TRIM72 mutants or domain deletion or single domain fused with EGFP in lentiviral vector.\nCell viability was assessed using CCK-8. Cells were seeded in a 96-well plate at a density of 1.5×10^3cells per well for Arsenite treatment or 7×10^3 cells per well for H2O2 treatment. Arsenite (Sigma) was added into each well at concentration of 0.125 mM, 0.25 mM or 0.5 mM, and washed the cells after 2 hours incubation at 37° C. For H2O2-treatment experiment, scAAV9 infection (estimated multiplicity of infection (MOI): 10,000 vg/cell) was done for 24 hours at 17 hours after cell seeding. Then, H2O2 was added into each well at concentration of 300 μM, and washed the cells after 1 hours incubation at 37° C. […] After another 2 hours of incubation at 37° C., the optical density (OD) value of each well was measured using a microplate reader with an excitation wavelength of 450 nm. The cell viability of 293 FT was calculated. […]\nPrevious study determined that TRIM72 senses changes in the oxidative environment and forms oligomer complex to complete membrane repair. […]", "values": [{"molecule": "B1", "cell viability after stress challenge (protective effect of TRIM72 mutants)": "abolished the anti-stress effect of TRIM72; also recorded: blocked TRIM72 protective effect"}, {"molecule": "B2", "cell viability after stress challenge (protective effect of TRIM72 mutants)": "reserved equal protective effect to wildtype"}]}, {"tested_on": "N2a cell line", "assay": "CCK-8 cell viability after H2O2 treatment, expression by scAAV9 infection", "assay_type": "cell-based", "conditions": "scAAV9 infection MOI 10,000 vg/cell, H2O2 300 μM, 1 hour", "experimental": "Cell viability was assessed using CCK-8. Cells were seeded in a 96-well plate at a density of 1.5×10^3cells per well for Arsenite treatment or 7×10^3 cells per well for H2O2 treatment. Arsenite (Sigma) was added into each well at concentration of 0.125 mM, 0.25 mM or 0.5 mM, and washed the cells after 2 hours incubation at 37° C. For H2O2-treatment experiment, scAAV9 infection (estimated multiplicity of infection (MOI): 10,000 vg/cell) was done for 24 hours at 17 hours after cell seeding. Then, H2O2 was added into each well at concentration of 300 μM, and washed the cells after 1 hours incubation at 37° C. When the cell has been processed by Arsenite or H202. a total of 10 μL of CCK-8 solution (Yeasen) was added to each well. After another 2 hours of incubation at 37° C., the optical density (OD) value of each well was measured using a microplate reader with an excitation wavelength of 450 nm. The cell viability of 293 FT was calculated. The experiment was repeated at least three times to obtain the mean value.\nTo further investigate which key domains of TRIM72 protein are necessary to protect neurons, different domain-deleted TRIM72 were constructed and overexpressed in N2a cell line by scAAV9 infection (FIG. 1). CCK-8 was used to measure the cell viability after H2O2 treatment. Indeed, cell viability was decreased after H2O2 treatment (FIG. 10).\nCCK-8 was used to measure the cell viability after H2O2 treatment.", "values": [{"molecule": "B3", "cell viability under H2O2 stress (protective effect)": "not the coiled-coil single domain was sufficient to protect cells from oxidative stress"}, {"molecule": "B4", "cell viability under H2O2 stress (protective effect)": "rather than TRIM40 elicit protective effects from oxidative stress"}, {"molecule": "B5", "cell viability under H2O2 stress (protective effect)": "sufficient to protect cells from oxidative stress"}, {"molecule": "B6", "cell viability under H2O2 stress (protective effect)": "sufficient to protect cells from oxidative stress"}, {"molecule": "B7", "cell viability under H2O2 stress (protective effect)": "elicit protective effects from oxidative stress"}]}]}
